One test has as its system MD8S protein. Put plainly: Inhibition of digestion of recombinant IGFBP-5 by MD8S protein (western blotting). In kind it is biochemical, human. The procedure: The MD8S enzyme solution obtained in Example 8(1) was reacted with recombinant IGFBP-5 obtained in Example 9(1) in a 50 mmol/L tris-HCl (pH7.4) buffer containing 50 mmol/L NaCl, 2 mmol/L CaCl2, 20 μg/mL bovine serum albumin (BSA), and 0.1% CHAPS at 37° C. overnight. In this connection, concentrations of the MD8S protein and recombinant IGFBP-5 in the reaction solution were 1.5 μg/mL and 10 μg/mL, respectively.
Using an aliquot of the reaction solution, SDS-PAGE was carried out, and then a transfer to a PVDF membrane and blocking was carried out. Recombinant IGFBP-5 was detected by reacting a biotinylated M2 antibody (Sigma) as the first antibody, followed by a horseradish peroxidase-labeled streptavidin (Amersham) as the second antibody, and by using an ECL Western Blotting Detecting System (Amersham Pharmacia).
Substances inhibiting the activity of digesting IGFBP-5 by the MD8S protein can be screened by the reaction system utilizing western blotting performed in Example 9(2). In this Example, the procedure described in Example 9(2) was repeated, except that various compounds having a hydroxamic acid scaffold as a compound to be tested were added to the reaction system containing the MD8S enzyme solution and recombinant IGFBP-5, to measure an inhibitory intensity of the activity of digesting IGFBP-5. […]

For the next test, the system named is IGFBP-3. Put plainly: Activity of digesting IGFBP-3 by MD8S protein. In kind it is biochemical. The following applies: commercial IGFBP-3 10 μg/mL, MD8S 1.5 μg/mL, 37° C. overnight; new band of 25 kDa. The procedure: (§1) The MD8S enzyme solution obtained in Example 8(1) was reacted with commercially available IGFBP-3 or IGFBP-5 (upstate biotechnology) in a 50 mmol/L tris-HCl(pH7.4) buffer containing 50 mmol/L NaCl, 2 mmol/L CaCl2, 20 μg/mL bovine serum albumin (BSA), and 0.1% CHAPS at 37° C. overnight. In this connection, concentrations of the MD8S protein and IGFBP-3 (or IGFBP-5) in the reaction solution were 1.5 μg/mL and 10 μg/mL, respectively.
(§2) Using an aliquot of the reaction solution, sodium dodecyl sulfate polyacrylamide gel electrophoresis (SDS-PAGE) was carried out, and then a transfer to a PVDF membrane and blocking was carried out. IGFBP-3 was detected using an anti-IGFBP-3 polyclonal antibody (R&D System) as the first antibody and a peroxidase-labeled rabbit anti-goat IgG polyclonal antibody (ZYMED) as the second antibody. IGFBP-5 was detected using an anti-IGFBP-5 polyclonal antibody (upstate biotechnology) as the first antibody and a peroxidase-labeled goat anti-rabbit IgG polyclonal antibody (MBL) as the second antibody.

In the next test the test system is IGFBP-5. Put plainly: Activity of digesting IGFBP-5 by MD8S protein. It is filed as biochemical, human. Conditions: MD8S 1.5 μg/mL, 37° C. overnight. The protocol:
as §1, §2
The MD8S enzyme solution obtained in Example 8(1) was reacted with recombinant IGFBP-5 obtained in Example 9(1) in a 50 mmol/L tris-HCl (pH7.4) buffer containing 50 mmol/L NaCl, 2 mmol/L CaCl2, 20 μg/mL bovine serum albumin (BSA), and 0.1% CHAPS at 37° C. overnight. […]

The text below walks through data of US7374923B2, “Polypeptide” (Astellas Pharma Inc., priority 2002, dated 2008).

For the molecule `CCCOCC(C(=O)NC(Cc1ccc(OC)cc1)C(=O)NC)C(CSC)C(=O)O` (stereo not drawn) [compound A, N^α-[(3-carboxy-4-methylthio-2-propoxymethyl)butyryl]-N,O-dimethylthyrosineamide], in the test with MD8S protein (MD8S 1.5 μg/mL, recombinant IGFBP-5 10 μg/mL, 37° C. overnight, western blot image analysis, read-out: intensity of the inhibition activity (IC50) of the activity of digesting IGFBP-5), the 50% inhibitory concentration (IC50) was found to be 3.3 µM. For the same molecule, the “activity of digesting recombinant IGFBP by the MD8S protein in presence of compound (FIG. 3)” value with MD8S protein (electrophoresis, compound A 1 nmol/L to 10 μmol/L) was “inhibited”.

B1: MD8S protein: extracellular region of human MD8 protein, 1st to 646th amino acids of SEQ ID NO: 2, with C-terminal FLAG tag (protein, listed as Homo sapiens)
chain: MRGLGLWLLGAMMLPAIAPSRPWALMEQYEVVLPRRLPGPRVRRALPSHLGLHPERVSYVLGATGHNFTLHLRKNRDLLGSGYTETYTAANGSEVTEQPRGQDHCFYQGHVEGYPDSAASLSTCAGLRGFFQVGSDLHLIEPLDEGGEGGRHAVYQAEHLLQTAGTCGVSDDSLGSLLGPRTAAVFRPRPGDSLPSRETRYVELYVVVDNAEFQMLGSEAAVRHRVLEVVNHVDKLYQKLNFRVVLVGLEIWNSQDRFHVSPDPSVTLENLLTWQARQRTRRHLHDNVQLITGVDFTGTTVGFARVSAMCSHSSGAVNQDHSKNPVGVACTMAHEMGHNLGMDHDENVQGCRCQERFEAGRCIMAGSIGSSFPRMFSDCSQAYLESFLERPQSVCLANAPDLSHLVGGPVCGNLFVERGEQCDCGPPEDCRNRCCNSTTCQLAEGAQCAHGTCCQECKVKPAGELCRPKKDMCDLEEFCDGRHPECPEDAFQENGTPCSGGYCYNGACPTLAQQCQAFWGPGGQAAEESCFSYDILPGCKASRYRADMCGVLQCKGGQQPLGRAICIVDVCHALTTEDGTAYEPVPEGTRCGPEKVCWKGRCQDLHVYRSSNCSAQCHNHGVCNHKQECHCHAGWAPPHCAKLLTE
modifications: C-terminal FLAG tag
With B1, the “activity of digesting IGFBP-3” value with IGFBP-3 is on record as “exhibits an activity of digesting IGFBP-3”. Moreover, the “activity of digesting IGFBP-5” value with IGFBP-5 (commercial IGFBP-5 10 μg/mL, new bands 12 to 25 kDa) was “exhibits an activity of digesting IGFBP-3 and IGFBP-5”. In addition, the “activity of digesting recombinant IGFBP-5” value in the test with IGFBP-5 (recombinant IGFBP-5-FLAG 10 μg/mL) is listed as “exhibits an activity of digesting IGFBP-5”.
